One may read the Kd as a measure of binding affinity in units of concentration.

In PMC6681757, “Site-specific phosphorylation of myosin binding protein-C coordinates thin and thick filament activation in cardiac muscle” (Proceedings of the National Academy of Sciences of the …, 2019) one finds Kd data, which are given here for 1 molecule.

The assay concerns the target T1, myosin S2Δ, the first 126 amino acids of myosin S2 (cardiac myosin).
T1 construct: cardiac myosin heavy chain, S2 domain, first 126 amino acids of S2
Description: MST; C1mC2 species (or native full-length cMyBP-C) titrated against myosin S2Δ; normalized MST curves; conditions in SI Appendix. As to conditions: both partners purified.

B1: C1mC2-S288A monophosphorylated by PKA (C1mC2-S288A-1P) (domain or fragment)
chain: PIGLFLMRPQDGEVTVGGSIVFSARVAGASLLKPPVVKWFKGKWVDLSSKVGQHLQLHDSYDRASKVYLFELHITDAQATSAGGYRCEVSTKDKFDSCNFNLTVHEAIGSGDLDLRSAFRRTSLAGTGRRTADSHEDAGTLDFSSLLKKSSSFRRDSKLEAPAEEDVWEILRQAPPSEYERIAFQHGVTDLRGMLKRLKGMKHDEKKSTAFQKKLEPAYQVNKGHKIRLTVELADPDAEVKWLKNGQEIQMSGRYIFESIGAKRTLTISQCSLADDAAYQCVVGGEKCSTELFVKEP
modifications: one phosphate (monophosphorylated by PKA); the phosphorylated residue is not given
Consider B1, for which the Kd was approximately 20 µM.
